The values below are quoted from earlier work in US12233109B2, “Long-acting GLP-1r agonist as a therapy of neurological and neurodegenerative conditions” (The Johns Hopkins University, priority 2015, dated 2025).

For the data set the following is noted: in vivo.

Turning to “Albiglutide: dipeptidyl peptidase-4-resistant glucagon-like peptide-1 dimer fused to human albumin”, the half-life entry is on record as “four to seven”.
